Source: FireProtDB (doi:10.1021/bi00146a008)

Conditions: Homo sapiens, pH 2.8, Thermal, DSC, glycine-HCl 50 mM, reversible: yes, whole UniProt chain shown

B1: Lysozyme C wild type, P61626 (protein)
chain: MKALIVLGLVLLSVTVQGKVFERCELARTLKRLGMDGYRGISLANWMCLAKWESGYNTRATNYNAGDRSTDYGIFQINSRYWCNDGKTPGAVNACHLSCSALLQDNIADAVACAKRVVRDPQGIRAWVAWRNRCQNRDVRQYVQGCGV
68.8 °C
  heat capacity change of unfolding: 1.58 kcal/mol/K
  unfolding enthalpy (calorimetric): 120 kcal/mol
  Tm: 68.8 °C
  heat capacity change of unfolding: 1.58 kcal/mol/K
